Among the data in the Immune Epitope Database (IEDB) are Kd values, retold here.

pKd: −log10 of the molar value. Where only a bound is given, the exact number is not on record here.

In general, pKd refers to the negative decadic logarithm of the Kd, by convention in mol/L.

For this test, the target named is HLA-A*02:01. The test can be described thus: IEDB peptide-MHC binding, purified MHC/competitive/radioactivity; filed as Kd, often an IC50 or EC50 that approximates it; ≥ and ≤ were set here for values at or beyond the usual limits of such assays. The conditions noted are these: source organism: Homo sapiens.

Regarding FACSAVPVYI, the pKd was 6.11.
As for ALTGTEKL, the pKd was at most 4.30.
As to ALTVVWLL, the pKd is 5.15.
The value for IAATYNFAV was 7.03; that for QMTFHLFI was 5.73.
For the sequence WLGHPDKFV, the pKd was at most 4.30.
To WLLVFACSAV belongs 5.87; to FLPRHRDTGIL, at most 4.30; to SLLTFMIAA, 8.03.
For LVLFACSAV, the pKd is 6.34.
The value for LLVFACSAVPV was 6.00; that for FMIAATYNFAV was 8.00.
On to VIHAFQYVI, for which the negative logarithm of the Kd (pKd) was 5.91.
As to QMTFHLFIA, the pKd is 5.78.
To FLPRHRDTGI belongs at most 5.30; to WLGHPDKFVGI, at most 4.60.
On to LVFACSAVPV, for which the pKd was 5.79.
With GLCFFGVAL, the negative logarithm of the Kd (pKd) was 5.38.
As to RMYGVLPWI, the pKd is 7.54.
The value for TLSKIFKL was 5.62; that for HLFIAAFV was 5.96.
To FLYGALLLA belongs 8.59; to SLSRFSWGA, 6.04; to YALTVVWLLV, 6.18.
The value for VLPWIAFPGKV was 5.89; that for SLCADARMYGV was 6.45.
As for LVSLLTFMI, the pKd is 5.72.
Regarding VVHFFKNIV, the pKd was at most 4.30.
Consider WLLVFACSA, for which the pKd is at most 4.30.
TLVSLLTFMI: the negative-log Kd (pKd) is 5.58.
In the case of FLYGALLL, the pKd was 6.84.
In the case of YALTVVWLL, the pKd was 6.92.
ALTGTEKLI: the pKd is at most 4.30.
With CLVGAPFASLC, the pKd was 5.20.
With GLLECCARCLV, the pKd is 7.02.
As to KVCGSNLLSI, the pKd was 5.34.
